A short description of the data set: label from the status in PepcDB records.

Consider “PSYTVTVATGSQWFAGTDDYIYLSLVGSAGCSEKHLLDKPFYNDFERGAVDSYDVTVDEELGEIQLVRIEKRKYWLNDDWYLKYITLKTPHGDYIEFPCYRWITGDVEVVLRDGRAKLARDDQIHILKQHRRKELETRQKQYRWMEWNPGFPLSIDAKCHKDLPRDIQFDSEKGVDFVLNYSKAMENLFINRFMHMFQSSWNDFADFEKIFVKISNTISERVMNHWQEDLMFGYQFLNGCNPVLIRRCTELPEKLPVTTEMVECSLERQLSLEQEVQQGNIFIVDFELLDGIDANKTDPCTLQFLAAPICLLYKNLANKIVPIAIQLNQIPGDENPIFLPSDAKYDWLLAKIWVRSSDFHVHQTITHLLRTHLVSEVFGIAMYRQLPAVHPIFKLLVAHVRFTIAINTKAREQLICECGLFDKANATGGGGHVQMVQRAMKDLTYASLCFPEAIKARGMESKEDIPYYFYRDDGLLVWEAIRTFTAEVVDIYYEGDQVVEEDPELQDFVNDVYVYGMRGRKSSGFPKSVKSREQLSEYLTVVIFTASAQHAAVNFGQYDWCSWI”, for which the protein production entry is “failed”.
Regarding “PVGAVMTPRPEVDMIDLSDPPDQIRATFASSPHSRLPATDGDRDDPIGIIQSKDVLEVYLRGETPDFRALVRDAPVIPASADARDALIMLRNASVHMGLVYDEFGGFEGVVSTADILESIVGAFSSEDG”, the protein production entry was “failed”.
For “PVPATPILQLEECCTHNNSATLSWKQPPLSTVPADGYILELDDGNGGQFREVYVGKETMCTVDGLHFNSTYNARVKAFNKTGVSPYSKTLVLQTSEG” the value was “not failed”; for “PYYLFMTMYWHHTSTTPVSTVLITHGYAEHQGRYSALVRSLLNYNFDVVTFDLPGHGYAPGPRACVDVDKLVDFHVALRHRAEQDCRLRTETMCLFGHSMGGLITALSVLEDSSNVSAVALSGPAFSPFPKTPRVVTRMLRCSARIAPRLKVLALPQDAISRDPEVVAAYANDPRNYTGRVPLLTGASMALAGQKALAQASQWDRSVPLLVMHGSADRLADIEGSRNFAASAGGTMRPVDGAFHEIFNEPEAPQLRAELCEWLHANCG”, “failed”; for “QEQRMSHHYATIEVSQQLRQLLGDQLVILLRETPDGQALERSQNDFRRVLEQGRANTVDSAEQAALDGVRDAYLQLQAHTPALLEAPMADNDGFSEAFNGLRLRLQDLQQLALAGISEAETSARHRA”, “not failed”.
Next, “QETGISMIGERTNSNGSKAFREAMLSGDWEKCVDIAKQQTRDGAHMLDLCVDYVGRDGTADMATLAALLATSSTLPIMIDSTEPEVIRTGLEHLGGRSIVNSVNFEDGDGPESRYQRIMKLVKQHGAAVVALTIDEEGQARTAEHKVRIAKRLIDDITGSYGLDIKDIVVDCLTFPISTGQEETRRDGIETIEAIRELKKLYPEIHTTLGLSNISFGLNPAARQVLNSVFLNECIEAGLDSAIAHSSKILPMNRIDDRQREVALDMVYDRRTEDYDPLQEFMQLFEGVSAAD”: “not failed”; “QGSVSTNLQEKGLVVSIVDTLMFDTGRAEVKPDFQKKLVEIGEILKTIDNYIRIEGHTDNTPISNSQYASNIELGSARSNNVEHLFIDVSKIPVTQMYTVSYADTRPVADNNSEAGKARNRRVDIVILNSK”: “failed”.
On to “QIAAVDPAGMSVIRDRNQLFRVNSAGEVENTYTLKVINKTQQVQEYNLDVKGLNDVSWYGKQTIQVEPGEVLNLPMSLGADPDKLNSAITTIQFILTDKSNEFTIEVESRFIKKL”, for which the protein production entry was “not failed”.
In the case of “QIAELPYAMRINNSFEARKSPHAFVNLLNYILLEKSGADIACTALFDSANGFDEKITMRDIINNYPFPNTFKVIELSGKDIKLAIERSASYFDIVNHKITVNKEFLEPKPQHFNYDIFAGIQYTIHVSHPYGERVSDLLINDAPIQSDQIYTICVNNYRAVGGGNYDMYVNKPVIKDIQIEGAQLLIDYLSHNDLSQIPQVIDFNVVK”, the protein production entry is on record as “failed”.
For “QKVQDAAMQEDPKALDEVVIVARQNINELDIRAKSGVVQRVDVERLNSKPMIDMSLALQGAVPGLIITNTGDLGSKPEIRIRGNSSFRKGDMANEPLYVMDGKVISSDAFMTLNPADIQEIKVLKDAVACALYGIKAANGVIEITSQRGNPDG” the value was “failed”; for “QPTGTMTTDSKLTSKESALALTNSAYLKNTVFNKMTPGWGCNTILLLEYMTGKATSENSQSNYKDFQDLLVSDRSLYIEDWWQDCYAGIANCNLALQKLGEFENLDASLVNGYMAEVKFMRALYYFYLVRIFGDVPKITTVQSELGELQVSRAPVKEIYDEIIIPDLLEAEQSDLAFSDHTGRVSMGAVKALLADVYLTYAGYPLQGGKSYYAESAKRSLEVIKSNEYTLFTDYESLRLPSQNNKGEFIYQVQFSLNKRHNESVRIFLPSRSGISAYDLEYGSLIPTKEFVESFEKGDKRTEEKQYFFTNYKGHPSKFSPGAAELEFMDLNGYYIYKFFDQVAVDNTAKSDLNWSVYRYTDVLLMYAEAQVNADGTPNQQSIDIVNQIRGRAGLAPFKQTNASAFLEEVWDQRYFDLCYENKMWFDMLRTRKIRDDKSGEYVDFIGYKTNWGKVYTETQLLFPIPLSERQANPNLTQNQGY”, “not failed”; for “QRSTFGTKHMVFRTDQLIDGIERNVRITSEEVNAALPVPLLDRQDPGAILISGSSYTEPSEALQTMREAMTQEKFSGSVEIPLGIVRALLDLGFTDEAASWLEDLVPRLGNEWRHQWYSGVTSLLLDDYLTAQQHFNEVYNILPGESAPKLARAAVCEMLLQEKGLESTALLDPAVTVAAADIKGEGMSNIWRELTSDPATLRFKAIYLYALVWRTNPTTVSSAFGLARQLAAENQIDLAVSTLDRVPQNSTHRRMAELTAILHLLGDLSEARLRRAARRLEAIPTNEPRFLQIQIAIMNAALQWLRTGGEAANDPIFEYPFTQRGLRNGLSATLRQLARSAPSSHRYALVDVANQVRPMTWF”, “not failed”.
Next, “QSLELGTMQPSFTSVTGKGGVKVIDGSSVKFGRFDGAEPHCVGLTDLVTEQDGSSMAAGFMQWDNAFFPWTLNYDEIDMVLEGELHVRHEGETMIAKAGDVMFIPKGSSIEFGTPTSVRFLYVAWPANWQSV”: “not failed”; “QSNVVIMQDPGGGYGDALRKVMYDPFEKETGIKVVTVQEARSGPRIKAQAEAGKAQWDLTFIFDQETKLLGDCCLADIDYSKLSESAHKTLAAMPDNLKRKKGVALQVIGVGLVYNKDKFKGDKAPQTWADFWDVKKFPGRRCMPAWPRFTFEAALMADGVTKDKLYPIDMDRALKKLKEIKPHVVKWWTTAAQPPQLILDGEADMCLAYTGSMSKLALEGAPIDLTFNQGFVYYDFFSIPKGAPNYDNALKLLSWRLDPKRAAQLTSTFPVALPSKVVFDAATDKNIARYWANNPENVAKAIEWSPDFWGAPSPAGNSTNEEYGQEKLNAMLAQ”: “not failed”; “QYCWQHRFPTGYFSICDRYMNGTCPEGNSCKFAHGNAELHEWEERRDALKMKLNKA”: “not failed”.
Next, “RAKALQKVKEAITLHGGQTILSTGITGDDARLAKAVCEAGVKLLEPNHPALALARGHKGVSNMHAAEQIRHEITNSQMAEAVHGVRNVVPDDIFITVGIAGGFTETLPVPLSEKEILEIARAGADGLHTHKSDWDDLQDIVNLAHQYGLTVDAYIGHPDDLHTFGIPARTPEEVASVAKRMQDIGVDMIGLMTGMSYEGVAAGDIPQMIKDRLRALVGAVDVPTLAEGGINLANAKAFKDTGVNILVVGTAI”: “failed”.
“RDFLPALGSMRPPIIIHRAGKKYGFTLRAIRVYMGDSDVYTVHHMVWHVEDGGPASEAGLRQGDLITHVNGEPVHGLVHTEVVELILKSGNKVAISTTPLENTSIKVGPARKGSY”: the protein production entry is on record as “failed”.
For the sequence “RDRRDSRLRVAASMTIAEYLLPGWLVALRAQLPDTAVSLLAGNSAAVAERLLADDADLGFVEGVSVPTGLDSAVIGHDRLIVVTAPGHPWARRRRPLEAAELAATPLILREKGSGTRQVLDAALGGLARPLIELSSTTAVK”, the protein production result is on record as “failed”.
Next, “REHNYPDTCFEHFVASSVAVYPVFELAAKSTGRIGQLLRSAVYESSAWQQGGNTHFGAFLLLIPLAMAAGEISREQGEQPGCGKTFFRIEAEEFENLASHAHAFVRETDCEDAVEFYRAFGHAGVRVNSVEEFDLEDPEATSDLRNQNITLYSLMEIAKGYDLIANEWTSGFGRCLEGAKIILDFMDARNCREEALAGGSVSICSGTGINEAVVYTFLKLLSKHRDTFIQTKFDAETADYVSSRAGEVLSGWEISGKKAGDFASILPRIQEFDSELLDKRINPGSTADIIIAALFIALLGGLR”: “failed”.

The values are drawn from a protein production outcome set (Wang et al. 2014).
